Experimental findings from patent US20230172982A1 are described below.

The test deals with CD20, on SUP-B15 CD20+ cells (UniProt P11836). The test can be described thus: cell-based or functional assay.
Sequence of UniProt P11836 (P11836 whole entry): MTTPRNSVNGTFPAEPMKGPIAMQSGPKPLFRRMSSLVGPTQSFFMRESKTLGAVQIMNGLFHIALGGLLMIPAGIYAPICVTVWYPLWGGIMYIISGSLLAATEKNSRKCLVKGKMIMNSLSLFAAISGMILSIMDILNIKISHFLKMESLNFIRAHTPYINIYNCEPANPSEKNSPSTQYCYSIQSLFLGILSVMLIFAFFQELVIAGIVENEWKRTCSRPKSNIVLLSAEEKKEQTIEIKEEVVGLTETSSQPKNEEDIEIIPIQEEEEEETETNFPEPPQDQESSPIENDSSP

The substance rituximab (antibody) yielded an ADCC by polyclonal BCMA.CAR t-haNK cells (quadracistronic) of 60% and an ADCC by polyclonal BCMA.CAR t-haNK cells (tricistronic) of 55%.
